In patent publication US20240052038A1:
Where two headings read alike, the source gives them in different places.

Tests used:
[1] = biological target: mouse PD-L1 on CD3+ T lymphocytes (mouse) (UniProt Q9EP73); test: receptor occupancy on blood CD3+ T cells by flow cytometry, correlated with serum antibody concentration after a single injection in mice
[2] = biological target: mouse PD-L1 on CD3+ T lymphocytes (mouse) (UniProt Q9EP73); test: receptor occupancy on blood CD3+ T cells by flow cytometry, mice dosed with 1.5 mg/mouse, day 10
[3] = biological target: Fc-γ receptors expressed on the immune cells; test: cell-based or functional assay
[4] = biological target: Fc-γ receptors expressed on the immune cells; test: cell-based or functional assay; remark: listed apart in the source

Chain of mouse PD-L1 on CD3+ T lymphocytes (mouse) (Q9EP73 19-290): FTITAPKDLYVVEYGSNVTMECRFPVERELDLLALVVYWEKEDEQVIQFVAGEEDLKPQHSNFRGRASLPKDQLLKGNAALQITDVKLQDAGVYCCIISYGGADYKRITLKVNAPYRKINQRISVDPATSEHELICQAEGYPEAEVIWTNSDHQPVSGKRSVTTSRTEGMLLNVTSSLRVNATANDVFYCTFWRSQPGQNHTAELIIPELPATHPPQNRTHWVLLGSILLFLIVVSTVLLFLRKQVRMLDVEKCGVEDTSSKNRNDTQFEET

rat anti-mouse PD-L1 monoclonal antibody (clone 10F.9G2, BioXCell)
serum antibody concentration above which complete target occupancy was achieved [1]: 1 nM
receptor occupancy [2]: > 60%

biosimilar of atezolizumab (antibody)
EC50 (ADCC, CHO-K1/PD-L1 target cells, E/T 25:1; no dose response curve) [3]: 9.5 ng/mL
Target cell lysis (ADCC, CHO-K1/PD-L1 target cells, E/T 25:1) [3]: 1.4%

Rituximab (antibody)
EC50 (ADCC, Raji/CD-20 target cells, E/T 25:1) [3]: 1.9 ng/mL
Target cell lysis (ADCC, Raji/CD-20 target cells, E/T 25:1) [3]: 43.6%
Target cell lysis (ADCC, Raji/CD-20 target cells, PBMC effectors, E/T 25:1) [3]: 48.8%
EC50 (ADCC, Raji/CD-20 target cells, E/T 25:1) [4]: 2.1 ng/mL
Target cell lysis (ADCC, Raji/CD-20 target cells, E/T 25:1) [4]: 53.5%
